Test results taken from IntAct's records for PubMed 23624404.

Molecular target: rad51_yeast RAD51 (UniProt P25454)
Sequence (P25454 whole entry): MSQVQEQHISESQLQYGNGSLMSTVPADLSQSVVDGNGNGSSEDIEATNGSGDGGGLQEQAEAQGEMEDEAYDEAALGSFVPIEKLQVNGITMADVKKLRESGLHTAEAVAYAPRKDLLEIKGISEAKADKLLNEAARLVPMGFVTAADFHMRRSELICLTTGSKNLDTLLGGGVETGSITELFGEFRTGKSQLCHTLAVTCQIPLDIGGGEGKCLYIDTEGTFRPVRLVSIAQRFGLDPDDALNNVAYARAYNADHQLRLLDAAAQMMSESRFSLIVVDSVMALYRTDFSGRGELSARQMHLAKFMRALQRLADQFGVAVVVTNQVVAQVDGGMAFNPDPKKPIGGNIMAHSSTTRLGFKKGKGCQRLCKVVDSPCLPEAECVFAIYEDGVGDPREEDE

- effect of a mutation on the interaction: decreasing interaction strength
Substance: DNA repair and recombination protein RAD52 (Saccharomyces cerevisiae) (from UniProt P06778) K10R;K11R;K220R
